Measured values: the supplement of paper PMC10724198

Key:
[1] = test system: Saccharomyces cerevisiae; assay: protein stability index of tFT-peptide fusion in deletion strain of DAS1 (PSI (0-1 scale)); higher = more stable (slower turnover)
Method: (§1)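 MPS profiling in S. cerevisiae of two library types built from selected 12-aa C-degron peptides (IN1, IN2, LN1, LN3, VN2, R1-R5, W1-W3, Atg1 and Rpa12 C-termini): saturation mutagenesis libraries and C-terminal +1 capping libraries (13 aa). Each peptide is fused to the C-terminus of a sfGFP-mCherry timer, after a GGGS linker. Cells are FACS-sorted into 8 mCherry/sfGFP bins and sequenced. PSI runs from 0 (unstable) to 1 (stable), measured once in wild type and in the das1Δ or doa10Δ background.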

[2] = test system: Saccharomyces cerevisiae; assay: protein stability index of tFT-peptide fusion in wild type (PSI (0-1 scale)); higher = more stable (slower turnover); conditions: genetic background: wild type
Method: as §1
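For protein stability index of tFT-peptide fusion in deletion strain of DAS1 in this document: PSI is a weighted mean of each variant's read distribution over the sorted stability bins, computed only for variants having over 10 reads in total.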
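For protein stability index of tFT-peptide fusion in wild type in this document: PSI derived as read-weighted mean over the 8 sorting bins, only variants exceeding 10 total reads kept, mCherry placed adjacent to the peptide and sfGFP distal.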

Row | Sequence | protein stability index [1] | protein stability index [2]
1 | FSMRWTRRYWVN | 0.585 | 0.101
2 | FSMSWTFRYWVN | 0.493 | 0.0567
3 | GTSCGYKFRTNN | 0.659 | 0.261
4 | HSLAASFWRVVG | 0.691 | 0.121
5 | KKHKAGQKQKIN | 0.579 | 0.0948
6 | KKHKKGCKQKIN | 0.598 | 0.0767
7 | KKHKKGDKQKIN | 0.599 | 0.137
8 | KKHKKGLKQKIN | 0.596 | 0.0663
9 | KKHKKGQKPKIN | 0.626 | 0.574
10 | KKHKKGQKQKDN | 0.638 | 0.607
11 | KKHKKGQKQKINL | 0.663 | 0.652
12 | KKHKKGQKQKKN | 0.843 | 0.577
13 | KKHKKGQKQKMN | 0.533 | 0.0838
14 | KKHKKGQKQKNN | 0.643 | 0.476
15 | KKHKKGQKQSIN | 0.577 | 0.673
16 | KKHKKTQKQKIN | 0.677 | 0.0737
17 | KKHKVGQKQKIN | 0.567 | 0.0595
18 | KKHPKGQKQKIN | 0.684 | 0.14
19 | KKHSKGQKQKIN | 0.576 | 0.0645
20 | KKILRQKMNHQN | 0.688 | 0.159
21 | KKPKKGQKQKIN | 0.591 | 0.174
22 | KKSKKGQKQKIN | 0.576 | 0.0679
23 | KKTKKGQKQKIN | 0.583 | 0.113
24 | KKVKKGQKQKIN | 0.631 | 0.122

Row | Sequence | protein stability index [1] | protein stability index [2]
25 | KPHKKGQKQKIN | 0.625 | 0.0908
26 | KQHKKGQKQKIN | 0.621 | 0.104
27 | KTHKKGQKQKIN | 0.684 | 0.0924
28 | LCILRQKMNHQN | 0.655 | 0.115
29 | LDILRQKMNHQN | 0.707 | 0.121
30 | LEILRQKMNHQN | 0.672 | 0.161
31 | LFVYLSCVACIN | 0.0251 | 0.0334
32 | LKCLRQKMNHQN | 0.682 | 0.205
33 | LKELRQKMNHQN | 0.673 | 0.217
34 | LKIGRQKMNHQN | 0.674 | 0.414
35 | LKILGQKMNHQN | 0.678 | 0.365
36 | LKILRHKMNHQN | 0.693 | 0.194
37 | LKILRMKMNHQN | 0.71 | 0.243
38 | LKILRQKFNHQN | 0.668 | 0.202
39 | LKILRQKMDHQN | 0.673 | 0.613
40 | LKILRQKMFHQN | 0.654 | 0.206
41 | LKILRQKMNHKN | 0.678 | 0.484
42 | LKILRQKMNHLN | 0.674 | 0.192
43 | LKILRQKMNHMN | 0.605 | 0.191
44 | LKILRQKMNHQD | 0.667 | 0.622
45 | LKILRQKMNHQG | 0.656 | 0.215
46 | LKILRQKMNHTN | 0.672 | 0.197
47 | LKILRQKMQHQN | 0.716 | 0.238
48 | LKILRQKVNHQN | 0.661 | 0.282

Row | Sequence | protein stability index [1] | protein stability index [2]
49 | LKILVQKMNHQN | 0.662 | 0.218
50 | LKIQRQKMNHQN | 0.676 | 0.23
51 | LKPLRQKMNHQN | 0.682 | 0.172
52 | LKVYLSCVACIN | 0.14 | 0.0444
53 | LKYLRQKMNHQN | 0.629 | 0.17
54 | LRILRQKMNHQN | 0.666 | 0.148
55 | LVAYLSCVACIN | 0.156 | 0.0244
56 | LVGYLSCVACIN | 0.342 | 0.0848
57 | LVVKLSCVACIN | 0.0586 | 0.0127
58 | LVVPLSCVACIN | 0.359 | 0.254
59 | LVVYLSCTACIN | 0.0401 | 0.0192
60 | LVVYLSCVACCN | 0.0342 | 0.0106
61 | LVVYLSCVACHN | 0.0392 | 0.0435
62 | LVVYLSCVACIG | 0.0316 | 0.0178
63 | LVVYLSCVACINH | 0.0365 | 0.0236
64 | LVVYLSCVACINM | 0.206 | 0.183
65 | LVVYLSCVACINV | 0.0328 | 0.02
66 | LVVYLSCVACMN | 0.0497 | 0.0204
67 | LVVYLSCVACNN | 0.16 | 0.127
68 | LVVYLSCVACSN | 0.0313 | 0.0158
69 | LVVYLSCVAYIN | 0.0273 | 0.0128
70 | LVVYLSCVDCIN | 0.417 | 0.402
71 | LVVYLSCVECIN | 0.262 | 0.125
72 | LVVYLSCVFCIN | 0.167 | 0.0477

Row | Sequence | protein stability index [1] | protein stability index [2]
73 | LVVYLSCVICIN | 0.112 | 0.0482
74 | LVVYLSHVACIN | 0.411 | 0.148
75 | LVVYLSNVACIN | 0.5 | 0.344
76 | LVVYLSRVACIN | 0.356 | 0.087
77 | LVVYRSCVACIN | 0.333 | 0.133
78 | LWVYLSCVACIN | 0.0209 | 0.0149
79 | LYILRQKMNHQN | 0.666 | 0.135
80 | PDKKNHLIKLLN | 0.768 | 0.09
81 | PDKRAHLIKLLN | 0.617 | 0.112
82 | PDKRNHKIKLLN | 0.599 | 0.086
83 | PDKRNHLIALLN | 0.634 | 0.216
84 | PDKRNHLIKELN | 0.597 | 0.355
85 | PDKRNHLIKLIN | 0.612 | 0.115
86 | PDKRNHLIKLLI | 0.594 | 0.206
87 | PDKRNHLIKLPN | 0.587 | 0.592
88 | PDKRNHLIKLQN | 0.737 | 0.453
89 | PDKRNHLIKLVN | 0.645 | 0.158
90 | PDKRNHLIKPLN | 0.586 | 0.607
91 | PDKRNHLIKRLN | 0.602 | 0.104
92 | PDKRNHLIMLLN | 0.624 | 0.193
93 | PDKRNHLIPLLN | 0.585 | 0.405
94 | PDKRNHLIQLLN | 0.616 | 0.102
95 | PDKRNHLITLLN | 0.622 | 0.315
96 | PDKRNHLQKLLN | 0.582 | 0.168

Row | Sequence | protein stability index [1] | protein stability index [2]
97 | PDKRNHVIKLLN | 0.605 | 0.0941
98 | PDKRNHWIKLLN | 0.567 | 0.196
99 | PDKRNVLIKLLN | 0.589 | 0.125
100 | PDKRNWLIKLLN | 0.675 | 0.0714
101 | PDKRSHLIKLLN | 0.631 | 0.0872
102 | PDKWNHLIKLLN | 0.576 | 0.0782
103 | PDLRNHLIKLLN | 0.614 | 0.13
104 | PSGAASFWRVVG | 0.668 | 0.16
105 | PSLAASFERVVG | 0.675 | 0.655
106 | PSLAASFHRVVG | 0.649 | 0.687
107 | PSLAASFIRVVG | 0.435 | 0.46
108 | PSLAASFVRVVG | 0.514 | 0.528
109 | PSLAASFWGVVG | 0.715 | 0.697
110 | PSLAASFWLVVG | 0.611 | 0.38
111 | PSLAASFWRAVG | 0.699 | 0.158
112 | PSLAASFWREVG | 0.705 | 0.258
113 | PSLAASFWRVCG | 0.659 | 0.163
114 | PSLAASFWRVLG | 0.68 | 0.164
115 | PSLAASFWRVPG | 0.689 | 0.677
116 | PSLAASFWRVVGK | 0.689 | 0.666
117 | PSLAASFWRVVGT | 0.698 | 0.674
